Results from doi:10.1101/2024.03.27.586992, “Molecular basis for condensin enrichment at pericentromeres” (bioRxiv, 2024).

T1: Ycg1(6-932, Δ499-555)-Brn1(384-529) (S. cerevisiae, UniProt Q06680 6-932; P38170 384-529, Δ499-555)
T1 construct: Brn1, S. cerevisiae, residues 384-529; also called Ycg1-Brn1; Ycg1-short Brn1
T1 sequence (looked up) 1: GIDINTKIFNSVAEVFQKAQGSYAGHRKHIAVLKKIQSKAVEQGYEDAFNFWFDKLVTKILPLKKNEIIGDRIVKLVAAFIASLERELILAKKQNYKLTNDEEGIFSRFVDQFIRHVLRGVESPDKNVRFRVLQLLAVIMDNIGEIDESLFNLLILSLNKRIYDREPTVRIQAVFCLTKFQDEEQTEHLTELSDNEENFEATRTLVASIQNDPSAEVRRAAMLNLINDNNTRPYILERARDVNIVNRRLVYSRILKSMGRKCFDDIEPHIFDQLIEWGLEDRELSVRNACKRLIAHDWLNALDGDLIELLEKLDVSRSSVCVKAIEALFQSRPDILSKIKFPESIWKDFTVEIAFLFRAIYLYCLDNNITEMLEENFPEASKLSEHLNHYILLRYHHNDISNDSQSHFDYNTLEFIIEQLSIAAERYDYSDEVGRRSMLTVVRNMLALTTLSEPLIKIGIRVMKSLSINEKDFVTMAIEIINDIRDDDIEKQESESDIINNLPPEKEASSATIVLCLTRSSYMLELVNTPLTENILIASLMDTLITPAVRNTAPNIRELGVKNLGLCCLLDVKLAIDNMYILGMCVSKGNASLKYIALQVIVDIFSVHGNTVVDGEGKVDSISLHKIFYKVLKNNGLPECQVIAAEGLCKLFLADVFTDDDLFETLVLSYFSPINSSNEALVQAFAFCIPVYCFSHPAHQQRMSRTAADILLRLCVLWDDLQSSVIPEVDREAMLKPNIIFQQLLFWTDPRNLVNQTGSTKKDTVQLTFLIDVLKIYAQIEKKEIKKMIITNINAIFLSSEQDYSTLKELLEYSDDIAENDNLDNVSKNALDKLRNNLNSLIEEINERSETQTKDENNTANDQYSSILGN
T1 sequence (looked up) 2: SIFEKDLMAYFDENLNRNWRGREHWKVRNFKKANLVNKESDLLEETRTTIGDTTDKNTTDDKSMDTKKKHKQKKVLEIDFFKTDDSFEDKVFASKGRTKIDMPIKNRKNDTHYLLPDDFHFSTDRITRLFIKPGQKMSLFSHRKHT

T2: Ycg1(6-932, Δ499-555) (S. cerevisiae, UniProt Q06680 6-932, Δ499-555)
T2 construct: Stood in the assay as a chain of m6; made a molecule for the cross-links
T2 sequence (looked up): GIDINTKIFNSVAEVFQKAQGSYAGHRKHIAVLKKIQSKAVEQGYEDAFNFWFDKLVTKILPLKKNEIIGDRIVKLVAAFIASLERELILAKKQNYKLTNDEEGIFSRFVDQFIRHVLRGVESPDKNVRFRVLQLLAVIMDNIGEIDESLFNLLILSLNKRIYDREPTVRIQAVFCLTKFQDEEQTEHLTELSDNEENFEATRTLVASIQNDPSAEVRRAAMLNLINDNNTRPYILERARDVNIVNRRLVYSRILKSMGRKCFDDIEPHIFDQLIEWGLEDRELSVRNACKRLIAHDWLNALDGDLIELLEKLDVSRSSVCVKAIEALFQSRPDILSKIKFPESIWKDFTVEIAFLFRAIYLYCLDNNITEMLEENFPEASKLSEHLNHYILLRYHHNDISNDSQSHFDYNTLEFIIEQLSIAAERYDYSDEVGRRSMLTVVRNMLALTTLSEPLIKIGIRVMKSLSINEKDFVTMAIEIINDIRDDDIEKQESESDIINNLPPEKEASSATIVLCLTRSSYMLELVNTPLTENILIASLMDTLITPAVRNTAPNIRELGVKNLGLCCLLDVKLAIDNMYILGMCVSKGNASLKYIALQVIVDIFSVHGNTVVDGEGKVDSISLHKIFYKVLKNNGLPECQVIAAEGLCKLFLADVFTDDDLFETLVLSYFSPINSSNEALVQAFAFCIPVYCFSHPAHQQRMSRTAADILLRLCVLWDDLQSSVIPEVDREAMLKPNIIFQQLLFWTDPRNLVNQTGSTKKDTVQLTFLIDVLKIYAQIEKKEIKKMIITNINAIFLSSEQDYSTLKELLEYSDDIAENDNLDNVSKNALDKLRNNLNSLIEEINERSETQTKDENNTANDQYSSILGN

T3: Ycg1 (subunit within the purified pentameric condensin holocomplex) (S. cerevisiae, UniProt Q06680 1-1035)
T3 construct: Ycg1, HAWK subunit of S. cerevisiae condensin; Stood in the assay as a subunit of m2; made a molecule for the cross-links to Sgo1; source: purified from yeast as part of the pentameric condensin complex
T3 sequence (looked up): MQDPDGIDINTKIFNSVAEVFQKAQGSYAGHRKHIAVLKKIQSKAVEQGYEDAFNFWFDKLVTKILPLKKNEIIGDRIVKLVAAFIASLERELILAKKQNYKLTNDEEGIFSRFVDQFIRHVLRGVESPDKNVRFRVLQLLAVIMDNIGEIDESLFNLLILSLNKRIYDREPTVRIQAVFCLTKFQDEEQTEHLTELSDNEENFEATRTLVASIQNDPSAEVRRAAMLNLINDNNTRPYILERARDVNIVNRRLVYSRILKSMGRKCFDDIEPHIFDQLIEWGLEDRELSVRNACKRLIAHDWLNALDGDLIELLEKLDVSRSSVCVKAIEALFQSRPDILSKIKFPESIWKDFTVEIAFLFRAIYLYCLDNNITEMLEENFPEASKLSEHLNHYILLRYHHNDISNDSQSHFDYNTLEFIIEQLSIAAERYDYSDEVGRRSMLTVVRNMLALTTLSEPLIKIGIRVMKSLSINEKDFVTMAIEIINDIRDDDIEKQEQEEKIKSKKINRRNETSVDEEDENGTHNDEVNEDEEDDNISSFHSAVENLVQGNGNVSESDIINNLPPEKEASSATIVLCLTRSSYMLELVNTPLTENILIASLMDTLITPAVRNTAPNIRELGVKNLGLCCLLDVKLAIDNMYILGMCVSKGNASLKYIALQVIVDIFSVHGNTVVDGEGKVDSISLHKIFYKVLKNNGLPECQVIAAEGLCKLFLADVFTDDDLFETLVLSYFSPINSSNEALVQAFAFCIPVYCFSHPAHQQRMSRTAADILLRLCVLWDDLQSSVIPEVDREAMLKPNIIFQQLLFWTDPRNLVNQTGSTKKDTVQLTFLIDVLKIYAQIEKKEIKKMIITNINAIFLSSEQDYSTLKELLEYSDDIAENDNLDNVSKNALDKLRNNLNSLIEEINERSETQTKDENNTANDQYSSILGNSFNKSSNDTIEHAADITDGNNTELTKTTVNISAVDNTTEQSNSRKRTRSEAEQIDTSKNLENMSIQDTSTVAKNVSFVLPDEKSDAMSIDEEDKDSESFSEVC


Key:
Details in all cases: both partners purified
[1] = biological target: T1, Ycg1(6-932, Δ499-555)-Brn1(384-529); assay: co-IP; two purified recombinant proteins incubated 2.5 hours with anti-GFP-coupled dynabeads (GFP-Sgo1 variant held); 25 mM HEPES pH 7.5, 500 mM NaCl, 10 % glycerol, 1 mM DTT, 0.1 % NP-40; silver stain
[2] = biological target: T2, Ycg1(6-932, Δ499-555); assay: cross-linking; BS3 cross-linking mass spectrometry; Sgo1: Ycg1-Brn1 molar ratio 1.5:1; 25 mM HEPES pH7.5, 500 mM NaCl, 10% glycerol; 2 hours on ice; crosslinks with score>10.5
[3] = biological target: T1, Ycg1(6-932, Δ499-555)-Brn1(384-529); assay: co-IP; two purified recombinant proteins incubated 2.5 hours with anti-V5-coupled dynabeads (V5-Sgo1 held); 25 mM HEPES pH 7.5, 500 mM NaCl, 10 % glycerol, 1 mM DTT, 0.1 % NP-40; silver stain or immunoblot
[4] = biological target: T3, Ycg1 (subunit within the purified …); assay: cross-linking; BS3 cross-linking mass spectrometry of full length Sgo1 with condensin holo-complex, 1:1 (w:w); 25 mM HEPES pH7.5, 150 mM NaCl, 5% glycerol, 1mM DTT; 2 hours on ice; crosslinks with score>10.5

| binding result [1] | binding result [2] | Binder | other results |
| --- | --- | --- | --- |
| binds | – | GFP-Sgo1 (472-530) (domain or fragment, S. cerevisiae, UniProt Q08490 472-530, looked up, Sgo1, S. cerevisiae, residues 472-530 (holds CR1); also called wild type; source: E. coli BL21(DE3), purified (Ni-NTA resin, dialysis)) KNEKKLTSNNSPKKSSPLLDITNKSENKKKSTRTKKLFKNAIVNNLSDENSTTRPSKSS | – |
| – | binds | Brn1(384-529) (domain or fragment, S. cerevisiae, UniProt P38170 384-529, looked up, Brn1, S. cerevisiae, residues 384-529; Stood in the assay as a chain of m6; made a molecule for the cross-links; also called short Brn1) SIFEKDLMAYFDENLNRNWRGREHWKVRNFKKANLVNKESDLLEETRTTIGDTTDKNTTDDKSMDTKKKHKQKKVLEIDFFKTDDSFEDKVFASKGRTKIDMPIKNRKNDTHYLLPDDFHFSTDRITRLFIKPGQKMSLFSHRKHT | – |
| – | binds | V5-Sgo1 (350-590) (domain or fragment, S. cerevisiae, UniProt Q08490 350-590, looked up, Sgo1, S. cerevisiae, residues 350-590 (C-terminal region); also called C-terminus of Sgo1 (350-590); C-Sgo1; source: protease-deficient yeast strain (AM8184), galactose induced, purified as V5-Sgo1 (FL) (Ni2+ IMAC, gel filtration)) EVMPVSNMSSNSEISFTRTRRTRGKAVDYTLPSLRAKMRRPSEKLVDATTVIDIHDLQVSKRNRETSHKRKSLSQDSIPDEPQLREVVVSKDYGTPKGKKTEDEIHEDTAHLMTTSNNNSNNKNEKKLTSNNSPKKSSPLLDITNKSENKKKSTRTKKLFKNAIVNNLSDENSTTRPSKSSKGTSNNNNNYNNFDNNNSNINNVNNKSVSFRLNEDDLAVFDLFGNGKAVKHQPKTYRTKK | binding result [3]: binds |
| binds | – | GFP-Sgo1(350-590) (domain or fragment, S. cerevisiae, UniProt Q08490 350-590, looked up, Sgo1, S. cerevisiae, residues 350-590; codon optimized gene; Written GFP-Sgo1; also called GFP-tagged C-Sgo1; wild type) EVMPVSNMSSNSEISFTRTRRTRGKAVDYTLPSLRAKMRRPSEKLVDATTVIDIHDLQVSKRNRETSHKRKSLSQDSIPDEPQLREVVVSKDYGTPKGKKTEDEIHEDTAHLMTTSNNNSNNKNEKKLTSNNSPKKSSPLLDITNKSENKKKSTRTKKLFKNAIVNNLSDENSTTRPSKSSKGTSNNNNNYNNFDNNNSNINNVNNKSVSFRLNEDDLAVFDLFGNGKAVKHQPKTYRTKK | – |
| – | – | V5-Sgo1 (FL) (natural protein, S. cerevisiae, UniProt Q08490 1-590, looked up, Sgo1 (shugoshin), S. cerevisiae, full length; Written V5-Sgo1; also called full length Sgo1; shugoshin; source: protease-deficient yeast strain (AM8184), purified (Ni2+ HiTrap IMAC, Superose 6 gel filtration)) MPKRKIAPNKESSRRTVSHDDLTPQIQEFQNLMDLESQKVENIRQSYSRQNSLLAKDNSILKIKVNSLEKKISQLVQENVTLRSKTSISEAIYRERLSNQLQVIENGIIQRFDEIFYMFENVRKNENLPSSSLRTMLKRTSSRSRSCSLSSPTYSKSYTRLSNHENNLSHESSFNKDDGPDLEPKAKKRKSSRRQSMFVSTSLEPEDETGENEPMMENSSVEVPAESHESAQVEETIDALNPEEENSDSVSNFTNSIIEYSIPEENPTEPEHSSSKLEIFNDSTNMLSTVPSNPLPLPLPGPSATLPTTTSDASTVYPSSSSSTNSHPKTKIKHSMKPPRIELKKKVIDEVMPVSNMSSNSEISFTRTRRTRGKAVDYTLPSLRAKMRRPSEKLVDATTVIDIHDLQVSKRNRETSHKRKSLSQDSIPDEPQLREVVVSKDYGTPKGKKTEDEIHEDTAHLMTTSNNNSNNKNEKKLTSNNSPKKSSPLLDITNKSENKKKSTRTKKLFKNAIVNNLSDENSTTRPSKSSKGTSNNNNNYNNFDNNNSNINNVNNKSVSFRLNEDDLAVFDLFGNGKAVKHQPKTYRTKK | binding result [4]: binds |
